Legend:
[1] = molecular target: manY component of the mannose permease complex (E. coli) (UniProt P69801)
[2] = molecular target: manZ component of the mannose permease complex (E. coli) (UniProt P69805)

**Q.** For Lambda gpH (Uniprot P03736), which apparent titer of packaged phagemids in MG1655 and KEIO manY (log decrease in the apparent titer) [1] is on record?
**A.** Its apparent titer of packaged phagemids in MG1655 and KEIO manY (log decrease in the apparent titer) is 2.

**Q.** And the apparent titer of packaged phagemids in MG1655 and KEIO manZ (log decrease in the apparent titer) [2]?
**A.** Its apparent titer of packaged phagemids in MG1655 and KEIO manZ (log decrease in the apparent titer) is 2.
